Laboratory results reported in IntAct's records for PubMed 25910212.

B1: Adiponectin (Homo sapiens), Q15848 (parent)
chain: MLLLGAVLLLLALPGHDQETTTQGPGVLLPLPKGACTGWMAGIPGHPGHNGAPGRDGRDGTPGEKGEKGDPGLIGPKGDIGETGVPGAEGPRGFPGIQGRKGEPGEGAYVYRSAFSVGLETYVTIPNMPIRFTKIFYNQQNHYDGSTGKFHCNIPGLYYFAYHITVYMKDVKVSLFKKDKAMLFTYDQYQENNVDQASGSVLLHLEVGDQVWLQVYGEGERNGLYADNDNDSTFTGFLLYHDTN
B2: Multifunctional procollagen lysine hydroxylase and glycosyltransferase LH3 (Homo sapiens), O60568 (parent)
chain: MTSSGPGPRFLLLLPLLLPPAASASDRPRGRDPVNPEKLLVITVATAETEGYLRFLRSAEFFNYTVRTLGLGEEWRGGDVARTVGGGQKVRWLKKEMEKYADREDMIIMFVDSYDVILAGSPTELLKKFVQSGSRLLFSAESFCWPEWGLAEQYPEVGTGKRFLNSGGFIGFATTIHQIVRQWKYKDDDDDQLFYTRLYLDPGLREKLSLNLDHKSRIFQNLNGALDEVVLKFDRNRVRIRNVAYDTLPIVVHGNGPTKLQLNYLGNYVPNGWTPEGGCGFCNQDRRTLPGGQPPPRVFLAVFVEQPTPFLPRFLQRLLLLDYPPDRVTLFLHNNEVFHEPHIADSWPQLQDHFSAVKLVGPEEALSPGEARDMAMDLCRQDPECEFYFSLDADAVLTNLQTLRILIEENRKVIAPMLSRHGKLWSNFWGALSPDEYYARSEDYVELVQRKRVGVWNVPYISQAYVIRGDTLRMELPQRDVFSGSDTDPDMAFCKSFRDKGIFLHLSNQHEFGRLLATSRYDTEHLHPDLWQIFDNPVDWKEQYIHENYSRALEGEGIVEQPCPDVYWFPLLSEQMCDELVAEMEHYGQWSGGRHEDSRLAGGYENVPTVDIHMKQVGYEDQWLQLLRTYVGPMTESLFPGYHTKARAVMNFVVRYRPDEQPSLRPHHDSSTFTLNVALNHKGLDYEGGGCRFLRYDCVISSPRKGWALLHPGRLTHYHEGLPTTWGTRYIMVSFVDP
B3: PiggyBac transposable element-derived protein 1 (Homo sapiens), Q96JS3 (parent)
chain: MYEALPGPAPENEDGLVKVKEEDPTWEQVCNSQEGSSHTQEICRLRFRHFCYQEAHGPQEALAQLRELCHQWLRPEMHTKEQIMELLVLEQFLTILPKELQPCVKTYPLESGEEAVTVLENLETGSGDTGQQASVYIQGQDMHPMVAEYQGVSLECQSLQLLPGITTLKCEPPQRPQGNPQEVSGPVPHGSAHLQEKNPRDKAVVPVFNPVRSQTLVKTEEETAQAVAAEKWSHLSLTRRNLCGNSAQETVMSLSPMTEEIVTKDRLFKAKQETSEEMEQSGEASGKPNRECAPQIPCSTPIATERTVAHLNTLKDRHPGDLWARMHISSLEYAAGDITRKGRKKDKARVSELLQGLSFSGDSDVEKDNEPEIQPAQKKLKVSCFPEKSWTKRDIKPNFPSWSALDSGLLNLKSEKLNPVELFELFFDDETFNLIVNETNNYASQKNVSLEVTVQEMRCVFGVLLLSGFMRHPRREMYWEVSDTDQNLVRDAIRRDRFELIFSNLHFADNGHLDQKDKFTKLRPLIKQMNKNFLLYAPLEEYYCFDKSMCECFDSDQFLNGKPIRIGYKIWCGTTTQGYLVWFEPYQEESTMKVDEDPDLGLGGNLVMNFADVLLERGQYPYHLCFDSFFTSVKLLSALKKKGVRATGTIRENRTEKCPLMNVEHMKKMKRGYFDFRIEENNEIILCRWYGDGIISLCSNAVGIEPVNEVSCCDADNEEIPQISQPSIVKVYDECKEGVAKMDQIISKYRVRIRSKKWYSILVSYMIDVAMNNAWQLHRACNPGASLDPLDFRRFVAHFYLEHNAHLSD
partner: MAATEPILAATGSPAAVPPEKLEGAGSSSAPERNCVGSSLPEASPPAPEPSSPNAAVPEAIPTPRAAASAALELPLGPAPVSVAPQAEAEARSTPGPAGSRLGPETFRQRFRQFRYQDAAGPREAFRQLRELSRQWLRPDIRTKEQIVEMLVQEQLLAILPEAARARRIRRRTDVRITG
B4: Elongation factor Ts, mitochondrial (Homo sapiens), P43897-2 (parent)
chain: MSLLRSLRVFLVARTGSYPAGSLLRQSPQPRHTFYAGPRLSASASSKELLMKLRRKTGYSFVNCKKALETCGGDLKQAEIWLHKEAQKEGWSKAAKLQGRKTKEGLIGLLQEGNTTVLVEVNCETDFVSRNLKFQLLVQQVALGTMMHCQTLKDQPSAYSKVQWLTPVNLALWEAEAGGSLEGFLNSSELSGLPAGPDREGSLKDQLALAIGKLGENMILKRAAWVKVPSGFYVGSYVHGAMQSPSLHKLVLGKYGALVICETSEQKTNLEDVGRRLGQHVVGMAPLSVGSLDDEPGGEAETKMLSQPYLLDPSITLGQYVQPQGVSVVDFVRFECGEGEEAAETE
B5: Krev interaction trapped protein 1 (Homo sapiens), O00522 (parent)
chain: MGNPENIEDAYVAVIRPKNTASLNSREYRAKSYEILLHEVPIEGQKKKRKKVLLETKLQGNSEITQGILDYVVETTKPISPANQGIRGKRVVLMKKFPLDGEKMGREASLFIVPSVVKDNTKYTYTPGCPIFYCLQDIMRVCSESSTHFATLTARMLIALDKWLDERHAQSHFIPALFRPSPLERIKTNVINPAYATESGQTENSLHMGYSALEIKSKMLALEKADTCIYNPLFGSDLQYTNRVDKVVINPYFGLGAPDYSKIQIPKQEKWQRSMSSVTEDKERQWVDDFPLHRSACEGDSELLSRLLSERFSVNQLDSDHWAPIHYACWYGKVEATRILLEKGKCNPNLLNGQLSSPLHFAAGGGHAEIVQILLNHPETDRHITDQQGRSPLNICEENKQNNWEEAAKLLKEAINKPYEKVRIYRMDGSYRSVELKHGNNTTVQQIMEGMRLSQETQQYFTIWICSENLSLQLKPYHKPLQHVRDWPEILAELTNLDPQRETPQLFLRRDVRLPLEVEKQIEDPLAILILFDEARYNLLKGFYTAPDAKLITLASLLLQIVYGNYESKKHKQGFLNEENLKSIVPVTKLKSKAPHWTNRILHEYKNLSTSEGVSKEMHHLQRMFLQNCWEIPTYGAAFFTGQIFTKASPSNHKVIPVYVGVNIKGLHLLNMETKALLISLKYGCFMWQLGDTDTCFQIHSMENKMSFIVHTKQAGLVVKLLMKLNGQLMPTERNS
B6: Carbonic anhydrase-related protein (Homo sapiens), P35219 (parent)
chain: MADLSFIEDTVAFPEKEEDEEEEEEGVEWGYEEGVEWGLVFPDANGEYQSPINLNSREARYDPSLLDVRLSPNYVVCRDCEVTNDGHTIQVILKSKSVLSGGPLPQGHEFELYEVRFHWGRENQRGSEHTVNFKAFPMELHLIHWNSTLFGSIDEAVGKPHGIAIIALFVQIGKEHVGLKAVTEILQDIQYKGKSKTIPCFNPNTLLPDPLLRDYWVYEGSLTIPPCSEGVTWILFRYPLTISQLQIEEFRRLRTHVKGAELVEGCDGILGDNFRPTQPLSDRVIRAAFQ
B7: Apolipoprotein D (Homo sapiens), P05090 (parent)
chain: MVMLLLLLSALAGLFGAAEGQAFHLGKCPNPPVQENFDVNKYLGRWYEIEKIPTTFENGRCIQANYSLMENGKIKVLNQELRADGTVNQIEGEATPVNLTEPAKLEVKFSWFMPSAPYWILATDYENYALVYSCTCIIQLFHVDFAWILARNPNLPPETVDSLKNILTSNNIDVKKMTVTDQVNCPKLS
partner: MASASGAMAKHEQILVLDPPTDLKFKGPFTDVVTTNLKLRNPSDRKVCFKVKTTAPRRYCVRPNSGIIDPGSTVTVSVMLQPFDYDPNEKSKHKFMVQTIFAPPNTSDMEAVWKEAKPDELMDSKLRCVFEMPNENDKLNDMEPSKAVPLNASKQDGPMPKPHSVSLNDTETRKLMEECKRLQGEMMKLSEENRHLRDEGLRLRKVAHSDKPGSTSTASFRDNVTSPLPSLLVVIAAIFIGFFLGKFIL

Variants of: B1
Details: with bni3l_human BNIP3L

| effect of a mutation on the interaction | Variant |
| --- | --- |
| with no effect | I164T |

Variants of: B1
Details: with sgta_human SGTA

| effect of a mutation on the interaction | Variant |
| --- | --- |
| with no effect | I164T |

Variants of: B2
Details: with ehmt2_human EHMT2, Q96KQ7
ehmt2_human EHMT2, Q96KQ7, sequence (Q96KQ7 whole entry): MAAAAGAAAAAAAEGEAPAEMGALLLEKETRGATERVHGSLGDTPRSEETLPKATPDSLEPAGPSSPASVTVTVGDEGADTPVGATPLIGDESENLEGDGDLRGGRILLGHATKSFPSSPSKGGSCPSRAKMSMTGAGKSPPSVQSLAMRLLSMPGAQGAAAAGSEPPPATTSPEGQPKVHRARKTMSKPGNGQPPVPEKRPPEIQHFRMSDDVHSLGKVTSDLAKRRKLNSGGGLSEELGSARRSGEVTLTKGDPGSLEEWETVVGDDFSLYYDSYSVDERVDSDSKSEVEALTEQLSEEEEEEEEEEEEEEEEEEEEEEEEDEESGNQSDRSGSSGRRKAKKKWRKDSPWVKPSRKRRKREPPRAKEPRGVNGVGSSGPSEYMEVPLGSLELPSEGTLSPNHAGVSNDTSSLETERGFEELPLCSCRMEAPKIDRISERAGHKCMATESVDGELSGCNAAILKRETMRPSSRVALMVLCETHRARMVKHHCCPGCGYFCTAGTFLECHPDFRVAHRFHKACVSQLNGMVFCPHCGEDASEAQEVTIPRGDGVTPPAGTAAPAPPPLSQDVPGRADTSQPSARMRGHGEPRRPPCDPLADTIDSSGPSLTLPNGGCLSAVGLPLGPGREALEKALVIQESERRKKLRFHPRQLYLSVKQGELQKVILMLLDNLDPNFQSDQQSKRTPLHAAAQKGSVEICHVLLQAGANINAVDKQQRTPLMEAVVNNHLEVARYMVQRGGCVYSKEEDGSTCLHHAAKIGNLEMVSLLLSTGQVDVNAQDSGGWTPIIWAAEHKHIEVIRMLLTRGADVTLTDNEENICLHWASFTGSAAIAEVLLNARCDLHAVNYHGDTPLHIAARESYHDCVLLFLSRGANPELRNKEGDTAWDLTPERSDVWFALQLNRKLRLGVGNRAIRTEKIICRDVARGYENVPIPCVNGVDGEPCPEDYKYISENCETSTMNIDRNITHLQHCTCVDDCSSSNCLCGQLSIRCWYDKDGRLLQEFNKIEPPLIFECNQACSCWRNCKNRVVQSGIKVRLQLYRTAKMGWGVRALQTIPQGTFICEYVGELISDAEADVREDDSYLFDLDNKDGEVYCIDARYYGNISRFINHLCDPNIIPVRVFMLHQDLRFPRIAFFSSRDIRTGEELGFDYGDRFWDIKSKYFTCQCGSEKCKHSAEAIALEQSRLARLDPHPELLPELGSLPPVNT

| effect of a mutation on the interaction | Variant |
| --- | --- |
| with no effect | N223S |

Variants of: B3
Details: with scnd1_human SCAND1, P57086

| Variant | effect of a mutation on the interaction |
| --- | --- |
| Q248E | with no effect |
| P256L | with no effect |

The remaining lines, values ahead:

| effect of a mutation on the interaction | Variant |
| --- | --- |
| with no effect | H806D |
| with no effect | I678V |
| with no effect | G244E |

Variants of: B4
Details: with pp12c_human PPP1R12C

| effect of a mutation on the interaction | Variant |
| --- | --- |
| disrupting interaction strength | R333W |

Variants of: B5
Details: with ccm2_human CCM2, Q9BSQ5
ccm2_human CCM2, Q9BSQ5, sequence (Q9BSQ5 whole entry): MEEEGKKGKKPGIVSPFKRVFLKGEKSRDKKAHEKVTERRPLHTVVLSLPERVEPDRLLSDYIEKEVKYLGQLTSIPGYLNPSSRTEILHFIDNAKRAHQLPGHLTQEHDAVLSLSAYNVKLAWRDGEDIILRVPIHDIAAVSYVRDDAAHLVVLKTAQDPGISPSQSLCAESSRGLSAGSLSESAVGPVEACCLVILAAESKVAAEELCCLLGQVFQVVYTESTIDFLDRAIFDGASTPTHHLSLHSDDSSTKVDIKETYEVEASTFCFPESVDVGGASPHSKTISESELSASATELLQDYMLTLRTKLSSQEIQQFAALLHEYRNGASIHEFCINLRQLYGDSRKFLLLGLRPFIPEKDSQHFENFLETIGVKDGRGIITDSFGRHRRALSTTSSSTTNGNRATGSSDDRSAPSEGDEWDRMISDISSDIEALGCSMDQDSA

| effect of a mutation on the interaction | Variant |
| --- | --- |
| with no effect | D137G |

Variants of: B6
Details: with int7_human INTS7, Q9NVH2
int7_human INTS7, Q9NVH2, sequence (Q9NVH2 whole entry): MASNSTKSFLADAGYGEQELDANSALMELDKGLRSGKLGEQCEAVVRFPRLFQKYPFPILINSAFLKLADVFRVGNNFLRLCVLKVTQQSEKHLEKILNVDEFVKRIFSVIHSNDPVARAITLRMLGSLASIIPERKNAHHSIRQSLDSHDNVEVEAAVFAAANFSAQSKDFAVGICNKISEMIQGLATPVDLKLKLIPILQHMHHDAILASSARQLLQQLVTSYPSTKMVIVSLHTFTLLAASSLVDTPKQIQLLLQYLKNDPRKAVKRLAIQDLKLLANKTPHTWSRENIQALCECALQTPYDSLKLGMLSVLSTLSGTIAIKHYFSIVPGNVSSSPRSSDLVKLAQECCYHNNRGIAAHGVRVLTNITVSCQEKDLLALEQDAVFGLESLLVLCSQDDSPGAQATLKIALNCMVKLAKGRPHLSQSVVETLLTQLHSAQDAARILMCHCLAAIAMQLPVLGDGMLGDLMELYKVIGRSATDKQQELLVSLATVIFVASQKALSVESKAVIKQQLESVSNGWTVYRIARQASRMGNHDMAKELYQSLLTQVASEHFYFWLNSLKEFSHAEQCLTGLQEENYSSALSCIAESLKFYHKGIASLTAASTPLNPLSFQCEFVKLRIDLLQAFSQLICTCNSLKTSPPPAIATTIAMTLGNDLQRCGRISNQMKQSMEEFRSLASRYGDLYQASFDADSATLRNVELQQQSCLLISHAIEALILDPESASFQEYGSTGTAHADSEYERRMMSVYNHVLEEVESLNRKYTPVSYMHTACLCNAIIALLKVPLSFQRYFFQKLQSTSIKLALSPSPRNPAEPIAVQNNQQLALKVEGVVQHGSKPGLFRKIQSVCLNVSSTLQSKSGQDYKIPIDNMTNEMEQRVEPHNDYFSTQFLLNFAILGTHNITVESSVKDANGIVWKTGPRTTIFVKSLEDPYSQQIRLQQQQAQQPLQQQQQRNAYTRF

| effect of a mutation on the interaction | Variant |
| --- | --- |
| disrupting interaction strength | S100P |

Variants of: B6
Details: with crx_human CRX

| effect of a mutation on the interaction | Variant |
| --- | --- |
| disrupting interaction strength | S100P |

Variants of: B7
Details: with vapa_human VAPA

| effect of a mutation on the interaction | Variant |
| --- | --- |
| with no effect | F56V |
